Assay results taken from paper PMC5515580.

Key:
[1] = target: MAST3-HA (human) (UniProt O60307)
[2] = target: Recombinant PKA (UniProt P17612)

6xHis-ARPP-16, sequence (P56211 17-112): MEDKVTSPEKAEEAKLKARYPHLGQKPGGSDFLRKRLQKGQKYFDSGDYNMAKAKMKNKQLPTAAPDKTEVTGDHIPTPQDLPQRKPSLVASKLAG
MAST3-HA (human), sequence (O60307 313-1021): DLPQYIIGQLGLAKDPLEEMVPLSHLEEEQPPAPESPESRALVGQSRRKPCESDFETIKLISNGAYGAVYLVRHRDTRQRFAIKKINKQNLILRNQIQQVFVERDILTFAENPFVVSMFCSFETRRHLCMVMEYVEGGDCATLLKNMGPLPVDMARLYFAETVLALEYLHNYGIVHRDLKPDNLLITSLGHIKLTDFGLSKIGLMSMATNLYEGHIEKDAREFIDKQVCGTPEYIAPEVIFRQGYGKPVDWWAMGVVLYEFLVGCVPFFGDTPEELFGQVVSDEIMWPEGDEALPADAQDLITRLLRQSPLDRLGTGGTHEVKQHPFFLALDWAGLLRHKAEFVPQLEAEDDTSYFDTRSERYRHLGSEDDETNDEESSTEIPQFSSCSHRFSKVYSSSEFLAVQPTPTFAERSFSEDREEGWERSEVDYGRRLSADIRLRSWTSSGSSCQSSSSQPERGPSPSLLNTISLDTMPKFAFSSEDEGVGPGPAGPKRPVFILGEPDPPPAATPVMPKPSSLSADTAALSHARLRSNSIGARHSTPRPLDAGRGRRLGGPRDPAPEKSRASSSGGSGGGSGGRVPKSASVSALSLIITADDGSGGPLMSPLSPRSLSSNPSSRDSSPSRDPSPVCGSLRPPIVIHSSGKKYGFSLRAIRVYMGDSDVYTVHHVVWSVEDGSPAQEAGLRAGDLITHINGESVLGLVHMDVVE
P-S46-ARPP-16, sequence (P56211 17-112): as the sequence (P56211 17-112) above

| Substance | Km of phosphorylation of Ser46 by immunoprecipitated MAST3 (32P incorporation, 10-500 nM substrate, 2 min; Figure 1b) [1] [µM] | Km of phosphorylation of Ser46 by immunoprecipitated MAST3 (32P incorporation, 10-500 nM substrate, 2 min; Figure 1—figure supplement 1) [1] [µM] | Km of phosphorylation of Ser88 by PKA (32P incorporation, 10-500 nM substrate; Figure 1d) [2] [µM] |
| --- | --- | --- | --- |
| 6xHis-ARPP-16 (from UniProt P56211-2 1-96) (natural protein) | 0.09 | 0.092 | 1.69 |
| P-S46-ARPP-16 (from UniProt P56211-2 1-96) (natural protein) |  |  | 0.87 |
